Source: patent US20170081400A1 (CEPHALON, published 2017)
Numbering of substitutions follows the chain as printed.

What was measured:
[1] = target: T1, human TL1A extracellular domain with N-terminal HIS and FLAG tag (human, UniProt O95150 72-251); test: SPR Run 5, Ab from supernatant captured on Protein A, TL1A 5 ug/mL, timepoint 44
T1 construct: the whole entry is named
T1 sequence: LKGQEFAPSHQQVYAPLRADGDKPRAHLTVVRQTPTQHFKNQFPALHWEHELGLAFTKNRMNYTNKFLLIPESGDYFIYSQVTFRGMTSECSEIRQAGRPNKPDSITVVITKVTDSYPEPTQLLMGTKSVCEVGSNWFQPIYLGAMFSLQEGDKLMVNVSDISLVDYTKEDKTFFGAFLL
From the text: (§1) 1.5. Antibody expression and antigen binding as determined by SPR. Using a CM5 sensor chip (GE Healthcare) Protein A (Pierce) was coupled to the chip surface using an amine coupling kit (GE Healthcare). Protein A was coupled on flow cell 1 and 2 (or alternatively 3 and 4) using a BIACORE® T200. […] The amount of supernatant or purified protein (as well as the concentration) injected during the capture stage varied between runs and is specified in the header of the Tables 3-11. At the end of injection of the supernatant or purified antibody the change in response units was measured. This value was reported as Capture Level in Tables 3-11. […] The response units were measured prior to the end of the dissociation phase. […] The sensorgrams were double referenced (flow cell 2 is subtracted from flow cell 1 and a buffer blank). As there were a large number of antibody variants to screen, these were screened across different runs (Tables 3-11). […] A summary of the conditions used in each run is below:
(§2) 2.1. […] In some experiment the antibodies were purified using Protein A chromatography (See 1.4) and purified antibodies were used in BIACORE® (GE Healthcare) experiments.

[2] = target: T1, human TL1A extracellular domain with …; test: SPR Run 5, Ab from supernatant captured on Protein A, TL1A 5 ug/mL, timepoint 220
From the text: as §1, §2

B1: 320-379 (antibody, human IgG1, name in Kabat numbering, V domains shown)
VH: QVQLVQSGAEVKKPGASVKVSCKASGYTFTSYDINWVRQAPGQGLEWMGWLNPNSGNTGYAQKFQGRVTMTADRSTSTAYMELSSLRSEDTAVYYCAREVPETAAFEYWGQGTLVTVSS
VL: QSVLTQPPSVSGAPGQRVTISCTSSSSDIGAGLGVHWYQQLPGTAPKLLIEGYYNRPSGVPDRFSGSKSGTSASLTITGLLPEDEGDYYCQSYDGTLSYLFGGGTKLTVLG
notes: human IgG1, lambda
In the case of B1, the “TL1A Binding Level (Early)” value [1] is reported as 3 RU and the “TL1A Binding Level (Late)” value [2] is reported as 1 RU.

B2: 320-405 (antibody, human IgG1, name in Kabat numbering, V domains shown)
VH: B1 VH with T28S
VL: B1 VL with Y99A
notes: human IgG1, lambda
With B2 the “TL1A Binding Level (Early)” value [1] was 10 RU and the “TL1A Binding Level (Late)” value [2] was 9 RU.

B3: 320-408 (antibody, human IgG1, name in Kabat numbering, V domains shown)
VH: B1 VH with T28H
VL: B1 VL with Y99A
notes: human IgG1, lambda
In the case of B3, the “TL1A Binding Level (Early)” value [1] is reported as 13 RU and the “TL1A Binding Level (Late)” value [2] is reported as 12 RU.

B4: 320-396 (antibody, human IgG1, name in Kabat numbering, V domains shown)
VH: B1 VH with G26Y
VL: B1 VL with Y99A
notes: human IgG1, lambda
With B4 the “TL1A Binding Level (Early)” value [1] was 12 RU and the “TL1A Binding Level (Late)” value [2] was 11 RU.

B5: 320-388 (antibody, human IgG1, name in Kabat numbering, V domains shown)
VH: B1 VH with G26A
VL: B1 VL with Y99A
notes: human IgG1, lambda
In the case of B5, the “TL1A Binding Level (Early)” value [1] is reported as 14 RU and the “TL1A Binding Level (Late)” value [2] is reported as 13 RU.

B6: 320-409 (antibody, human IgG1, name in Kabat numbering, V domains shown)
VH: B1 VH with T28K
VL: B1 VL with Y99A
notes: human IgG1, lambda
In the case of B6, the “TL1A Binding Level (Early)” value [1] is reported as 10 RU and the “TL1A Binding Level (Late)” value [2] is reported as 10 RU.

B7: 320-402 (antibody, human IgG1, name in Kabat numbering, V domains shown)
VH: B1 VH with Y27L
VL: B1 VL with Y99A
notes: human IgG1, lambda
B7 was tested, and the “TL1A Binding Level (Early)” value [1] was 11 RU and the “TL1A Binding Level (Late)” value [2] was 10 RU.

B8: 320-387 (antibody, human IgG1, name in Kabat numbering, V domains shown)
VH: B1 VH
VL: B1 VL with Y99A, L100Y
notes: human IgG1, lambda
B8 was tested, and the “TL1A Binding Level (Early)” value [1] was 11 RU and the “TL1A Binding Level (Late)” value [2] was 10 RU.

B9: 320-391 (antibody, human IgG1, name in Kabat numbering, V domains shown)
VH: B1 VH with G26D
VL: B1 VL with Y99A
notes: human IgG1, lambda
B9 was tested, and the “TL1A Binding Level (Early)” value [1] was 14 RU and the “TL1A Binding Level (Late)” value [2] was 13 RU.

B10: 320-394 (antibody, human IgG1, name in Kabat numbering, V domains shown)
VH: B1 VH with G26L
VL: B1 VL with Y99A
notes: human IgG1, lambda
For B10, the “TL1A Binding Level (Early)” value [1] was 13 RU and the “TL1A Binding Level (Late)” value [2] was 12 RU.

B11: 320-397 (antibody, human IgG1, name in Kabat numbering, V domains shown)
VH: B1 VH with Y27A
VL: B1 VL with Y99A
notes: human IgG1, lambda
With B11 the “TL1A Binding Level (Early)” value [1] was 12 RU and the “TL1A Binding Level (Late)” value [2] was 12 RU.

B12: 320-389 (antibody, human IgG1, name in Kabat numbering, V domains shown)
VH: B1 VH with G26S
VL: B1 VL with Y99A
notes: human IgG1, lambda
With B12 the “TL1A Binding Level (Early)” value [1] was 12 RU and the “TL1A Binding Level (Late)” value [2] was 11 RU.

B13: 320-390 (antibody, human IgG1, name in Kabat numbering, V domains shown)
VH: B1 VH with G26Q
VL: B1 VL with Y99A
notes: human IgG1, lambda
In the case of B13, the “TL1A Binding Level (Early)” value [1] is reported as 12 RU and the “TL1A Binding Level (Late)” value [2] is reported as 11 RU.

B14: 320-412 (antibody, human IgG1, name in Kabat numbering, V domains shown)
VH: B1 VH with T28Y
VL: B1 VL with Y99A
notes: human IgG1, lambda
In the case of B14, the “TL1A Binding Level (Early)” value [1] is reported as 10 RU and the “TL1A Binding Level (Late)” value [2] is reported as 9 RU.

B15: 320-399 (antibody, human IgG1, name in Kabat numbering, V domains shown)
VH: B1 VH with Y27Q
VL: B1 VL with Y99A
notes: human IgG1, lambda
With B15 the “TL1A Binding Level (Early)” value [1] was 10 RU and the “TL1A Binding Level (Late)” value [2] was 10 RU.

B16: 320-392 (antibody, human IgG1, name in Kabat numbering, V domains shown)
VH: B1 VH with G26H
VL: B1 VL with Y99A
notes: human IgG1, lambda
In the case of B16, the “TL1A Binding Level (Early)” value [1] is reported as 12 RU and the “TL1A Binding Level (Late)” value [2] is reported as 11 RU.

B17: 320-406 (antibody, human IgG1, name in Kabat numbering, V domains shown)
VH: B1 VH with T28Q
VL: B1 VL with Y99A
notes: human IgG1, lambda
For B17, the “TL1A Binding Level (Early)” value [1] was 8 RU and the “TL1A Binding Level (Late)” value [2] was 7 RU.

B18: 320-404 (antibody, human IgG1, name in Kabat numbering, V domains shown)
VH: B1 VH with T28A
VL: B1 VL with Y99A
notes: human IgG1, lambda
B18 was tested, and the “TL1A Binding Level (Early)” value [1] was 11 RU and the “TL1A Binding Level (Late)” value [2] was 10 RU.

B19: 320-393 (antibody, human IgG1, name in Kabat numbering, V domains shown)
VH: B1 VH with G26K
VL: B1 VL with Y99A
notes: human IgG1, lambda
For B19, the “TL1A Binding Level (Early)” value [1] was 12 RU and the “TL1A Binding Level (Late)” value [2] was 11 RU.

B20: 320-401 (antibody, human IgG1, name in Kabat numbering, V domains shown)
VH: B1 VH with Y27H
VL: B1 VL with Y99A
notes: human IgG1, lambda
For B20, the “TL1A Binding Level (Early)” value [1] was 11 RU and the “TL1A Binding Level (Late)” value [2] was 10 RU.

B21: 320-403 (antibody, human IgG1, name in Kabat numbering, V domains shown)
VH: B1 VH with Y27W
VL: B1 VL with Y99A
notes: human IgG1, lambda
B21 was tested, and the “TL1A Binding Level (Early)” value [1] was 11 RU and the “TL1A Binding Level (Late)” value [2] was 10 RU.

B22: 320-383 (antibody, human IgG1, name in Kabat numbering, V domains shown)
VH: B1 VH
VL: B1 VL with Y99A, L100D
notes: human IgG1, lambda
For B22, the “TL1A Binding Level (Early)” value [1] was 3 RU and the “TL1A Binding Level (Late)” value [2] was 1 RU.

B23: 320-384 (antibody, human IgG1, name in Kabat numbering, V domains shown)
VH: B1 VH
VL: B1 VL with Y99A, L100H
notes: human IgG1, lambda
With B23 the “TL1A Binding Level (Early)” value [1] was 3 RU and the “TL1A Binding Level (Late)” value [2] was 2 RU.

B24: 320-398 (antibody, human IgG1, name in Kabat numbering, V domains shown)
VH: B1 VH with Y27S
VL: B1 VL with Y99A
notes: human IgG1, lambda
In the case of B24, the “TL1A Binding Level (Early)” value [1] is reported as 12 RU and the “TL1A Binding Level (Late)” value [2] is reported as 11 RU.

B25: 320-410 (antibody, human IgG1, name in Kabat numbering, V domains shown)
VH: B1 VH with T28L
VL: B1 VL with Y99A
notes: human IgG1, lambda
For B25, the “TL1A Binding Level (Early)” value [1] was 11 RU and the “TL1A Binding Level (Late)” value [2] was 10 RU.

B26: 320-414 (antibody, human IgG1, name in Kabat numbering, V domains shown)
VH: B1 VH with F29S
VL: B1 VL with Y99A
notes: human IgG1, lambda
In the case of B26, the “TL1A Binding Level (Early)” value [1] is reported as 7 RU and the “TL1A Binding Level (Late)” value [2] is reported as 7 RU.

B27: 320-411 (antibody, human IgG1, name in Kabat numbering, V domains shown)
VH: B1 VH with T28W
VL: B1 VL with Y99A
notes: human IgG1, lambda
With B27 the “TL1A Binding Level (Early)” value [1] was 10 RU and the “TL1A Binding Level (Late)” value [2] was 9 RU.

B28: 320-415 (antibody, human IgG1, name in Kabat numbering, V domains shown)
VH: B1 VH with F29Q
VL: B1 VL with Y99A
notes: human IgG1, lambda
With B28 the “TL1A Binding Level (Early)” value [1] was 5 RU and the “TL1A Binding Level (Late)” value [2] was 4 RU.

B29: 320-413 (antibody, human IgG1, name in Kabat numbering, V domains shown)
VH: B1 VH with F29A
VL: B1 VL with Y99A
notes: human IgG1, lambda
B29 was tested, and the “TL1A Binding Level (Early)” value [1] was 9 RU and the “TL1A Binding Level (Late)” value [2] was 8 RU.

B30: 320-382 (antibody, human IgG1, name in Kabat numbering, V domains shown)
VH: B1 VH
VL: B1 VL with Y99A, L100Q
notes: human IgG1, lambda
For B30, the “TL1A Binding Level (Early)” value [1] was 0 RU and the “TL1A Binding Level (Late)” value [2] was 0 RU.

B31: 320-395 (antibody, human IgG1, name in Kabat numbering, V domains shown)
VH: B1 VH with G26W
VL: B1 VL with Y99A
notes: human IgG1, lambda
With B31 the “TL1A Binding Level (Early)” value [1] was 13 RU and the “TL1A Binding Level (Late)” value [2] was 12 RU.

B32: 320-400 (antibody, human IgG1, name in Kabat numbering, V domains shown)
VH: B1 VH with Y27D
VL: B1 VL with Y99A
notes: human IgG1, lambda
With B32 the “TL1A Binding Level (Early)” value [1] was 11 RU and the “TL1A Binding Level (Late)” value [2] was 11 RU.

B33: 320-407 (antibody, human IgG1, name in Kabat numbering, V domains shown)
VH: B1 VH with T28D
VL: B1 VL with Y99A
notes: human IgG1, lambda
In the case of B33, the “TL1A Binding Level (Early)” value [1] is reported as 12 RU and the “TL1A Binding Level (Late)” value [2] is reported as 11 RU.

B34: 320-416 (antibody, human IgG1, name in Kabat numbering, V domains shown)
VH: B1 VH with F29D
VL: B1 VL with Y99A
notes: human IgG1, lambda
In the case of B34, the “TL1A Binding Level (Early)” value [1] is reported as 9 RU and the “TL1A Binding Level (Late)” value [2] is reported as 8 RU.

B35: 320-381 (antibody, human IgG1, name in Kabat numbering, V domains shown)
VH: B1 VH
VL: B1 VL with Y99A, L100S
notes: human IgG1, lambda
In the case of B35, the “TL1A Binding Level (Early)” value [1] is reported as 3 RU and the “TL1A Binding Level (Late)” value [2] is reported as 1 RU.
